The term Kd denotes a measure of binding affinity in units of concentration. Low values mean higher affinity, high ones lower affinity. One may read the EC50 (read off the curve) as the concentration that produces a half-maximal response. Read a low EC50 (read off the curve) as a more potent agent.

Where a chain is given by its changes, count along the chain named. Where two headings read alike, the source gives them in different places.

The results in this text go back to patent publication US20240285753A1 (DUKE UNIVERSITY, published 2024).

Test [1] concerns the target T1, S2hlx-Ex34.
T1 chain: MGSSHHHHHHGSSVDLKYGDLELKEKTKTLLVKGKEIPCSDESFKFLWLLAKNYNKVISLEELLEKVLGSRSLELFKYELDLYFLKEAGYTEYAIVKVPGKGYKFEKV
Put plainly: SPR, mAb captured, scaffold as analyte. (Surface plasmon resonance follows binding to a sensor surface in real time, without labels.)

For test [2], the target named is T2, S2hlx-Ex37.
T2 chain: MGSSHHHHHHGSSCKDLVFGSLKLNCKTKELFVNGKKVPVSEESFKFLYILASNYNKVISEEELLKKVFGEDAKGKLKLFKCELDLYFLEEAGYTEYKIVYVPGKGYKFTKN
Put plainly: SPR, mAb captured, scaffold as analyte.

Test [3] deals with T3, S2hlx-Ex54.
T3 chain: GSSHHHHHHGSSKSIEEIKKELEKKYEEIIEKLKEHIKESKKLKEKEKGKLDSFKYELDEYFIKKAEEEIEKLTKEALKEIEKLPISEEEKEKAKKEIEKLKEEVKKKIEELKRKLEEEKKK
Briefly: SPR, mAb captured, scaffold as analyte.

For test [4], the target named is T4, S2hlx-Ex25.
T4 chain: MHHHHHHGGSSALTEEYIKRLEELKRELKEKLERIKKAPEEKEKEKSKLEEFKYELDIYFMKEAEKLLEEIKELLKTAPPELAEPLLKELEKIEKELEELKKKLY
Put plainly: ELISA; antigen coated, mAb titrated. (ELISA stands for enzyme-linked immunosorbent assay.)

The target in test [5] is T1, S2hlx-Ex34. Put plainly: ELISA; antigen coated, mAb titrated.
The target in test [6] is T5, S2hlx-Ex46.
T5 epitope scaffold: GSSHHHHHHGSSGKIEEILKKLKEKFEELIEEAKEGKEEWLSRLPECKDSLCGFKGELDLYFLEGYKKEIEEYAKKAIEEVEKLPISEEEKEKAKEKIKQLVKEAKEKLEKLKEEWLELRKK
Put plainly: ELISA; antigen coated, mAb titrated.

For test [7], the target named is T4, S2hlx-Ex25. Briefly: ELISA; antigen coated, mAb titrated.
Test [8] concerns the target T3, S2hlx-Ex54. Put plainly: ELISA; antigen coated, mAb titrated.
Test [9] deals with T6, S2hlx-Ex20.
T6 chain: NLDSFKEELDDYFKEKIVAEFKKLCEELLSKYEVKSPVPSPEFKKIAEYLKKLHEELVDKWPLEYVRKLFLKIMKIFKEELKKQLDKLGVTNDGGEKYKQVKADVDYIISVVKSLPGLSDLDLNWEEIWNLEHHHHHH
Put plainly: SPR, mAb captured, antigen as analyte.

Test [10] deals with T7, S2hlx-Ex15.
T7 chain: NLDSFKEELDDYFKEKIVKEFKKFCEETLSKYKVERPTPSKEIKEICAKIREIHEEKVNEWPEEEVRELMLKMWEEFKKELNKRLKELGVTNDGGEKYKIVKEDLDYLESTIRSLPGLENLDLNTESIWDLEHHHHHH
Briefly: SPR, mAb captured, antigen as analyte.

In test [11] the target is T8, S2hlx-Ex17.
T8 chain: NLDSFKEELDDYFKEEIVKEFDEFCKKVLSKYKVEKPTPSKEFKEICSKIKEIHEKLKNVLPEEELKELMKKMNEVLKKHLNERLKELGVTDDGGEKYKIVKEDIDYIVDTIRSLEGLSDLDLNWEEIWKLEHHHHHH
Put plainly: SPR, mAb captured, antigen as analyte.

Test [12] deals with T1, S2hlx-Ex34. Briefly: ELISA; antigen coated, mAb titrated.
Another test deals with T9, S2hlx-Ex35.
T9 chain: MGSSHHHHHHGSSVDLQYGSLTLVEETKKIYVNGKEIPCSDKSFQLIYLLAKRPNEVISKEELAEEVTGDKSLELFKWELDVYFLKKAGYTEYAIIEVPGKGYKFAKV
Put plainly: ELISA; antigen coated, mAb titrated.

Test [13] has as its target T1, S2hlx-Ex34. Put plainly: SPR, mAb captured, antigen as analyte.
In another test the target is T10, S2hlx-Ex8-Trx.
T10 chain: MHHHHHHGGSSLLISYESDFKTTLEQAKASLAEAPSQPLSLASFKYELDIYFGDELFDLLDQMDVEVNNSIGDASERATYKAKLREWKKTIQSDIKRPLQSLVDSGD
Briefly: SPR, mAb captured, antigen as analyte.

The target in test [14] is T4, S2hlx-Ex25. Put plainly: SPR, mAb captured, antigen as analyte.
Another test has as its target S2hlx-Ex4-Trx. Briefly: ELISA, coated antigen, mAb titrated.
Another test deals with S2hlx-Ex2-Trx. Put plainly: ELISA, coated antigen, mAb titrated.
Test [15] has as its target T5, S2hlx-Ex46. Put plainly: SPR, single cycle; mAb captured on Protein A, epitope scaffold as analyte.
The target in test [16] is T2, S2hlx-Ex37. Described as above.
For test [17], the target named is T3, S2hlx-Ex54. Described as above.
A further test has as its target T11, S2hlx-Ex15 F1148A.
T11 epitope scaffold: T7 chain with F5A
Put plainly: ELISA; antigen coated, mAb titrated.

For test [18], the target named is T7, S2hlx-Ex15. Put plainly: ELISA; antigen coated, mAb titrated.
Test [19] concerns the target T6, S2hlx-Ex20. Briefly: SPR, mAb captured, antigen as analyte.
Test [20] concerns the target T7, S2hlx-Ex15. Briefly: SPR, mAb captured, antigen as analyte.
Test [21] addresses T8, S2hlx-Ex17. Put plainly: SPR, mAb captured, antigen as analyte.
In test [22] the target is SARS-CoV-2 spike (WA-2, 2P) (SARS-CoV-2, UniProt P0DTC2 14-1208).
In test [23] the target is T12, SARS-CoV-2 spike (WA-2, 2P) (SARS-CoV-2, UniProt P0DTC2 14-1208). Put plainly: ELISA, coated antigen, mAb titrated.
Another test deals with T13, FP-13.
T13 epitope scaffold: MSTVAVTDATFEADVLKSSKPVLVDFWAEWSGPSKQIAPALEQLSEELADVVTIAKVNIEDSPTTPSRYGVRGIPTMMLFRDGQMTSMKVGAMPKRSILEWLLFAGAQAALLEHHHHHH
Briefly: ELISA, coated antigen, mAb titrated.

The target of test [24] is T12, SARS-CoV-2 spike (WA-2, 2P). Briefly: ELISA, coated spike, mAb titrated.
The target is the same in test [25]. Put plainly: ELISA, coated spike, mAb titrated. The source holds these as a separate data set.

B1: CC40.8 mAb (antibody, V domains shown)
VH: EVQLLESGGGLVQPGGSLRLSCAASGFTFSSYVMTWARQAPGKGLEWVSAISGTGYTYYADSVKGRFTVSRDNSKNTLFLQMSSLRAEDTAVYYCAITMAPVVWGQGTTVTVSS
VL: SYELTQPPSVSVSPGQTARITCSGDALPKRYAYWYQQKSGQAPILVIYEDKKRPSGIPERLSGSKSGTVATLTISGAQVEDEADYYCYSTDSSGNHAVFGGGTQLTVL
For the molecule B1, the Kd with S2hlx-Ex34 [1] came out at 486 nM; in the test with S2hlx-Ex37 [2] it was 849 nM; in the test with S2hlx-Ex54 [3], 150 nM; with S2hlx-Ex20 [9], 10.6 nM; with S2hlx-Ex15 [10] it was 3.4 nM; with S2hlx-Ex17 [11], 27.1 nM. Moreover, the Kd turned out to be 3880 nM in the test with S2hlx-Ex34 [13]; 1230 nM in the test with S2hlx-Ex8-Trx; 12100 nM with S2hlx-Ex25 [14]; 21500 nM with S2hlx-Ex46 [15]; 849 nM with S2hlx-Ex37 [16]; 150 nM in the test with S2hlx-Ex54 [17]. Moreover, the dissociation constant (Kd) with S2hlx-Ex20 [19] was found to be 10.6 nM; in the test with S2hlx-Ex15 [20], 3.4 nM; in the test with S2hlx-Ex17 [21] it was 27.1 nM; in test [22], 2.7 nM. Further, the 50% effective concentration (EC50 (read off the curve)) with S2hlx-Ex25 [4] was approximately 0.01 µg/mL; with S2hlx-Ex34 [5], approximately 0.4 µg/mL; in the test with S2hlx-Ex46 [6], approximately 0.2 µg/mL; with S2hlx-Ex25 [7], approximately 0.2 µg/mL; in the test with S2hlx-Ex54 [8], approximately 0.04 µg/mL; with S2hlx-Ex34 [12], approximately 0.1 µg/mL. For the same molecule, the “EC50 (read off the curve)” value in the test with S2hlx-Ex35 is approximately 0.8 µg/mL; with S2hlx-Ex4-Trx, approximately 0.05 µg/mL; with S2hlx-Ex2-Trx, approximately 0.1 µg/mL; with S2hlx-Ex15 F1148A, approximately 0.02 µg/mL; with S2hlx-Ex15 [18] it was approximately 0.02 µg/mL.

B2: inferred UCA of DH1501.1, DH1501.2 and DH1501.3 (antibody, V domains shown)
VH: QVQLVQSGAEVKKPGASVKVSCKASGYTFTSYYMHWVRQAPGQGLEWMGIINPSGGSTSYAQKFQGRVTMTRDTSTSTVYMELSSLRSEDTAVYYCARMSRYGAFDIWGQGIMVTVSS
VL: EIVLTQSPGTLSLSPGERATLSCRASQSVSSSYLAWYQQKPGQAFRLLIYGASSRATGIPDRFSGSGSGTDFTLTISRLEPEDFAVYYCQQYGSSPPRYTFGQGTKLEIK
For the molecule B2, in test [23], the “EC50 (read off the curve)” value is approximately 0.02 µg/mL.

B3: Cov44-26 (antibody, V domains shown)
VH: QVQLVQSGAEVKKPGASVKVSCKASGYTFSNFYMNWVRQAPGQGLEWVGLISPSAGYTAYAQMFQGRVTMTRDTSTSTVYMELSSLRSEDTAVYYCARVAVAGPNDYWGQGTLVTVSS
VL: EIVLTQSPGTLSLSPGERATLSCRASQSISSSYLAWYQQKPGQAPRLVIFAASTRATGIPDRFSGSGSGTDFTLTITRLEPEDFALYYCQHYRSSPPLWTFGQGTKVEIR
For B3, the “EC50 (read off the curve)” value with S2hlx-Ex25 [7] was approximately 0.02 µg/mL.

B4: COV44-79 (antibody, V domains shown)
VH: QVQLVESGGGVVQPGRSLRLSCAASGLTFSGYAMHWVRQAPGKGLEWVAVISRDARNKYYADSVKGRFTISRDNSKKTVYLEMNSLRVEDTAVYYCAILIIPGITEPGSPDALDIWGQGTMVSVSS
VL: DIQMTQSPSSMSASVGDRVTITCRASQDISKWLAWYQQRPGKAPKLLIYAASSLQSGVPSRFSGSGSGTDFTLTISSLQPEDFATYYCQQASSFPWSITFGQGTRLEIR
B4: the “EC50 (read off the curve)” value in the test with FP-13 was approximately 3 µg/mL.

B5: DH1509 (antibody, V domains shown)
VH: QVQLVESGGGVVQPGRSLRLSCAASGFTLSSHGIHWVRQAPGKGLEWVAVTSFDGRNKKFGDSVKGRFTISRDNSKNTVYLQMNSLRTEDTAVYYCAKDWGDDYSRWYFDLWGRGTLVTVSS
VL: DIQMTQSPSSLSASVGDRVTITCQASHDITKYLNWYQQKPGRAPKLLIYDASNLKTGVPSRFSGSGSGTDFTFTITSLQPEDLATYYCQQSDVLPITFGQGTRLEIK
On to B5, for which, in test [24], the “EC50 (read off the curve)” value was approximately 0.6 µg/mL.

B6: DH1498 (antibody, V domains shown)
VH: QVQLQESGPGLVKPSETLSLTCAVSGGSVSSDTYYWSWIRQPPGKGLEWIGYIYNSGSTNYNPSLKSRVTISVDTSKSQFSLNLGSVTAADTAVYYCAREGAGTYPPKNDAFDIWGQGTLVTVSS
VL: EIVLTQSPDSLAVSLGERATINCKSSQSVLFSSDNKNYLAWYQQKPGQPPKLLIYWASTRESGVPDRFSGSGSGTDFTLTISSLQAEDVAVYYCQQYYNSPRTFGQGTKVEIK
Consider B6, for which the “EC50 (read off the curve)” value in [25] was approximately 0.04 µg/mL.
